The values below come from the DeepSol protein solubility set.

The data set is described as follows: soluble on expression in E. coli; label from the status in PepcDB or PDB records.
Take “MSSTAGGEVSINSGDLLLGTLSTSITKLEQQIRATQLSQKKLNSDCETMAEYLRDLSEYKQPVDLLPYVGKLNDSTIRVNNTHQKLDDLLERLTKLQRQIARETYKKKNSIKEQEPPVQPEN”: the “soluble on expression in E. coli” value is given as “not soluble”. The same measure for “DKSRIAHMIDEWDGKEIIYPDDLVFTTMGEDTVKWFLKDSRYTIVTYADSIGCMGCKLKLPVWKDFISYLDSVSDHTVKVIFILHPRDKKEMVHLLEYNDFSYPVCLDIKGSFDKINKIPSNLAFQTFLLDNRNKVIAIGNPIHNPNVRTLYLNLILSDSICKS”: “not soluble”; for “MTDFQKQFFARLNIEEKQKVSFEDLSNIMYAMAQTVPFENLNVLEKNFKEISQENLKEKILVNNRGGLCYELNPTMYYFLKDAGFDVYLVSGTVYNAANSIWAVDSGHIATILKHHNELYLIEVGFGSYLPLAPVPFSGEVVQSVTGDYRIRKEMTEKGNYMLEMRKNDEFLDQSSTDDWTLGYAFYIEEVDEKKQMQHKKLLLNTMAHHLTKYLLL”: “not soluble”; for “MSLTDPAPEPEPPVEGQWTALTASPDTWDETKRADISYQLLLYSFADSDGDGYGDLNGVTQKLDYLNQLGVKALWLSPIHPCMSYHGYDVTDYTKVNPQLGTESDFDRLVTEAHNRGIKIYLDYVMNHTGTAHPWFTEASSSSESPYRNYYSFSEDPKTDIAAGKIAMITQEGAAGYNAAEWFQVSDETAAVKGLLKFTLDWSNAPSPILVVSTGTKADEDNPDTGTDNAKYLYYGEDICKKFYDKGNNIYELTVDFESTWGLLIRTSNASFWPSGTKYGASSSSEKLALNKDFKLTNAGNPANIMFDSQQITYFHSHFCTDWFADLNYGPVDQAGESPAYQAIADAAKGWIARGVDGLRLDAVKHIYHSETSEENPRFLKMFYEDMNAYYKQKGHTDDFYMIGEVLSEYDKVAPYYKGLPALFEFSFWYRLEWGINNSTGCYFAKDILSYQQKYANYRSDYIEATKLSNHDEDRTSSKLGKSADKCKLAAAVLLTSAGHPYIYYGEELGLYGTKDNGDEYVRSPMLWGDSYTTNYTDKTDATVSKNVKTVADQQADTHSLLNIYFSLTRLRNTYPALAEGNMTKHSVYNEGHHHHHH”: “not soluble”. Take “MNGASRGDVQRPTPVQAPAKRPIPPTVFRFEKASKIGTSLDTTPKELPIRRPVPLPGPRFVKDVNPSPPATSSPNVQTQCHQPPVVRSQTHQASVSQTTPTQTTPSQYTPASVSTARAPQFHRSSHVTPSQQQRIEQAFGPAPVSQSQPQNGSYIQYNEPSTSVASTTTSFYSPNESEPVFTHAISFKPNEPENGQKAREQLELLDSGKINEINQSKVPTTIELPPNCKLFQYSWVLDGIPRTLLVPMPMDATEEDVKAMLPKTLEMDSNLFNNARPRDELPVLSFPNGTVPNVEMIGPKVQQPMLVNPKQFNRIMRRREMRQQLEASGRLPLARQKYLHESRHLHALKRKRGLDGRFDNTKTAESSSMVSSTTSPRKLKRRNRLPGEETSDSSSIVLPSPVEIQPKGGIVNSSMPSTSTGYINNGMDHQTDYIEHQQPMSTYDQYHDHVQYIAPDGNVNYHNNHDNGVDLTGSDGQSFTNL”: the “soluble on expression in E. coli” value was “soluble”. The same measure for “MGSDKIHHHHHHMAFNFGCLNSPETVSSALATRENSLGLAIDPFLAPVAMVATQDIVLRQYFRERIVLGQENLPMQGPVLLAPTHRSRWDALMLPMAAGRRVTGRDCRFMVTVDEMKGLQGWFLHRLGCFPVNQSKPSLTSLRYAIDLMADGQQVVVFPEGTINRTEKPIKLYQGLARLAQLAKSQNIDVQVVPVGLGYSEVIPKACGRASICFAEPMKVLETGREAVKSFNAELSEKMHAAEQAALHAVGRLKKAP”: “not soluble”; for “KETKTTVHKFGLEPPSELIQKQLRANLDDDIWEVIRSRKIDGEHVILDKDYFFRKHVPHLTKEICENSIYEYIEGELGLSISYAQKEIVAEPCTDEDRELLDLRGYDHMVVVRNYVFLEDTSLFQYTESRHRL”: “not soluble”; for “MGSDKIHHHHHHMEEFEGEAIVEAENVVSIMLRREAAERADEILHFSYWSGEIKELDAPGYLDRWQKKCYHATCSLDEGEILLVVGPPGSGKTTFIAEAARKLSEEERVWVTSNTNIAVDNVLEKLERALRIGHPSKITAGVRRHSVEYNLLSGIRFSDYREYASKVAEAYREIARIQNDMIRKGKIVVGSTILKGMMSALKNYDFDTVIIDEASNTCISTALLALEKAEKAVVVGDPYQLPPVYEVGGHKAAKFSAYNFLINIYGKNLWLRRHYRSNAKIAEFAARHVYGFLEIDEKCRRIKIEPCKTTIPEVGDPEKPLVFIDCNGVERREGRSKVNEEEAEVVAMIAEELAECVGEENVGVITPYVKQAELIRGILSEFGVMVEVSTVHSYQGREKDVVIYSITATGNPYFASEKRLFNVALTRARKKFIAVGNSKALEGKNLLLTRFMVAAIKEGGFVRLR”: “not soluble”. The result for “MRKEGYKSGFVAIIGRPNVGKSTFLNRVIGQKIAIMSDKPQTTRNKIQGVYTDDDAQIIFIDTPGVHKPKHKLGDFMMKVALNALREVDLILFMVNAEEGFGRGEAFIIERLKEVDTPVFLVINKIDRVHPDELLPLIDRYKDLYPFAEIVPISALEGNNVDRLLEQIKERLPEGPQYYPPDQITDHPEQFIIAELIREKALHLTREEVPHSIAVVVERIERREGSPTVYISAVIVVERDSQKGIIIGKQGRMLKEIGQRARADIEALLGSRVFLELWVKVQKDWRNRLSQLRDFGFREDEY” reads “soluble”; that for “MVKLKVEDLEMDKIAPLAPEVSLKMAWNIMRDKNLKSIPVADGNNHLLGMLSTSNITATYMDIWDSNILAKSATSLDNILDTLSAEAQNINEERKVFPGKVVVAAMQAESLKEFISEGDIAIAGDRAEIQAELIELKVSLLIVTGGHTPSKEIIELAKKNNITVITTPHDSFTASRLIVQSLPVDYVMTKDNLVAVSTDDLVEDVKVTMSETRYSNYPVIDENNKVVGSIARFHLISTHKKKLEHHHHHHHH”, “soluble”.

For “MQTQEVVIKPTLKVLLKSDSQNLEEVVVTAMGIKRSEKSLGYAVSSVKGDEITKARESNVLNSLSGKIAGLQIAQSSGTVGGSSSIQIRGASSIGTVSSPLFIIDGLPIDNGSYNPDRTNGIVDVGNRAGDINSDDIESINVLKGAAATALYGARAKDGAIVITTKKGKKNSPVFVTVNSSTRFENVLKLPDFQNEYAQGSYGVYNVKMLNGWGPKISSVQDQQFTDYKGDKVTLKANPDNVKDFYETGMSYINNVSVAGGGEKADFRLSFTSTNQTGVVPGSDYNKYAFSVNAGMNFTSNFTGRISAQYIRSDSEGRPAQGANDSNLLIPLINGLPRTIDIHDIKQNWIDENGKQVTLDPEGKSNNPYWIINKNKFTNNLDRMIGNITLTYKPIEGLTITNNAGTDFYTEGRRKLYAKGTVGALNGKFQTWNLYKRIINNDLMVSYEKTFANDYHFKAMVGHNLYQEEWKNENVQAQNLVVDGLYTYTNAKSTTPVNYYEKKRLVGLYGDISLGYKDMLFINVTGRNDWSSTLPINNRSYFYPSISGSFIFTELMENKDILNYGKIRLSYANVGSDEDPYNLAFKYTPASTYFLQYLGNVNTFPHMGLVGFTGPRVLPNENLKPQNQSSFEVGADLRFFGGKIRLDMTYYSNITKNQIVSIDVPLSTGYFANNINAGKIANKGVEVTLGLTPVETRNFKWDLDATFASNKQTVEELAEGLDEYTLTSGLSGLQIKAAKGDSFGLYGTAWKRDDQGNYVINSKTGLRETVNNVRLGDVYPDFTMGINNTLTYKGLTFSFLIDIRHGGSLYSETVANLRSSGLAAETVAHREDASFIEPGVILQDDGTYRPNDVPVKSMQDYWQHVANSSNNEGNIYNASFVKLREVQLSYSFPRKWFKSFFVKSLDLGFEARNLWIIKDHVPHIDPEANFFGPSQIGGGVEFNSIPSTRSFGFNLRLTL”, the “soluble on expression in E. coli” value is listed as “not soluble”. The same measure for “GAMESHPHIQLLKSNRELLVTHIRNTQCLVDNLLKNDYFSAEDAEIVCACPTQPDKVRKILDLVQSKGEEVSEFFLYLLQQLADAYVDLRPWLLEIGFSPSLLTQSKVVVNTDPVSRYTQQLRHHLG”: “soluble”. The same measure for “KNYDLSDLPGPPSKPQVTDVTKNSVTLSWQPGTPGTLPASAYIIEAFSQSVSNSWQTVANHVKTTLYTVRGLRPNTIYLFMVRAINPQGLSDPSPMSDPVRTQD”: “soluble”; for “MGSDKIHHHHHHMIPLSRPDINEQDIERVVEVLKSGRLSLGEYTKRFGEMVAEYTGARFGWAVSSGTAALHLILESLDIDEGDLILVPSFTFIASVNVILMKRAIPVFVDVDERTLNVSPETLEEAVKRCLKGFKQGNIEIKGKPRLFMAVDVFGHPLDWDGILDVCQRYGIAVVEDSCEALGSEYKGRKVGTFGVAGAFAFYPNKQITTGEGGVVVTNDEKIHTAVKSMSNQGRGEGDEWLYHVRFGYNYRIDEMSAALGCSQMERIDEIVEKRAEAAERYSKMLKEFSWVKVPVVEDYVTKMSWFVYVVRLEGPDRNRVMRYMEEKGVQVRNYFYPVHFQPFYEKLFGSMKGLLPVTERESEKTLAIPFFTSITESEQKTVVEILREAVERVG”: “not soluble”. The same measure for “MSTAEQIATLENRINELELENKRLHETVAYLTRKLYGRSSEKTSALSVGQVSLFDEAEVYAVPQAPEPDLKEVQGYIRRKYKGQRTDLLKDIPHDKRLCTLAEEDRYCEACGTDLVSVGKEFIRTEIEFIPAKIRVIDYYRETFECRTCRKNGEPYMEKSPMPYPVIQHSMASPSTVAWIMHQKFVNHLPLYRQENEWKMLGVNLKRETMSNWILAAARDWLMPLVDLMHKKLLQEKYLHADETTVQVLNEEGRSNTTNSYMWVYSSGKYCKKQIRLFQYQPGRNGKYPQEFLKGFSGFLHTDAYSGYKKVPEITRCMCWTHLRRYFRDALPKDTQSPEATIPSQGIRFCNKLFEIEETLEKLTQEQRRLERLKQETPVLEAFWSWVDSVKDKVLPKSKIGEAIQYALNNKEDFMNYLLDGNCSISNNLSENSIRPFTLGRKNWLFSGSPRGADASAAVYSIVESAKANDINPYKYLYYIFSELPGVQFGQNPEFLEDYLPWSPDVQAACK”: “soluble”. Turning to “MSLGYDHPEILLNFKKDADIWDMMLNTNYMKTCREVVFEYLGVKNGDTVLEVGCGSRSPVYFASKVAPNGAYTGVDISKKLIRVAEGRLKRSGVECVNLKSMDFSETITKYKHDYVLCIHTLSYAHSMKLFLKKMMESLRKGGKLLIMEEFFTENINTNAELFEFYNHLNKYFKNYVSRTEILKEIEMLGYDFKYELLGNNCIVVERIEGHHHHHH”, the “soluble on expression in E. coli” value was “not soluble”. With “MQNTIIQKAVNKDLNSILEITKDALNAMKTMNFHQWDENYPNEIVFQEDIQAQELYVFKENDEILGFICINEKFKPEFYKQVIFNKNYDDKAFYLHRLAVKQNAKGKGVAQKLLNFCENFALENHKASLRADTHSKNFPMNSLFKKLDFNFCGNFDIPNYQDPFLAYEKILNQKAF”, the “soluble on expression in E. coli” value was “not soluble”. Turning to “MKHGILVAYKPKGPTSHDVVDEVRKKLKTRKVGHGGTLDPFACGVLIIGVNQGTRILEFYKDLKKVFWVKMRLGLITETFDITGEVVEERECNVTEEEIREAIFSFVGEYDQVPPAYSAKKYKGERLYKLAREGKIINLPPKRVKIFKIWDVNIEGRDVSFRVEVSPGTYIRSLCMDIGYKLGCGATAVELVRESVGPHTIEESLNVFEAAPEEIENRIIPLEKCLEWLPRVVVHQESTKMILNGSQIHLEMLKEWDGFKKGEVVRVFNEEGRLLALAEAERNSSFLETLRKHERQERVLTLRKVFQTR”, the “soluble on expression in E. coli” value is on record as “soluble”.
